Values belong to the binder of their own block, whether it stands above or below them.
What was measured:
[1] = target: T1, 4H3664-AA; test: two-hybrid library CCmax; settings: mean of both orientations;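 further: natural log of median RNA to DNA barcode read ratio; higher means stronger binding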
T1 chain: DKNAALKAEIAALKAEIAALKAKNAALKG

[2] = target: T2, 4H3625-AA; test: two-hybrid library CCmax; settings: mean of both orientations;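 further: natural log of median RNA to DNA barcode read ratio; higher means stronger binding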
T2 chain: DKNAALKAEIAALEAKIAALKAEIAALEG

[3] = target: T3, 4H1405-AA; test: two-hybrid library CCmax; settings: mean of both orientations;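 further: natural log of median RNA to DNA barcode read ratio; higher means stronger binding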
T3 chain: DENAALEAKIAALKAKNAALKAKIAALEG

[4] = target: T4, 4H2614-AA; test: two-hybrid library CCmax; settings: mean of both orientations;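 further: natural log of median RNA to DNA barcode read ratio; higher means stronger binding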
T4 chain: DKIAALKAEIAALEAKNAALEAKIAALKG

[5] = target: T5, 4H3605-AA; test: two-hybrid library CCmax; settings: mean of both orientations
T5 chain: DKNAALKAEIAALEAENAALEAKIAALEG

[6] = target: T6, 4H2211-AA; test: two-hybrid library CCmax
T6 chain: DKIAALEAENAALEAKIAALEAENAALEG

[7] = target: T7, 4H481-AA; test: two-hybrid library CCmax; settings: mean of both orientations
T7 chain: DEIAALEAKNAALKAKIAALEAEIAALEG

[8] = target: T8, 4H2608-AA; test: two-hybrid library CCmax; settings: mean of both orientations
T8 chain: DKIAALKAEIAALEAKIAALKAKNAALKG

[9] = target: T9, 4H1103-AA; test: two-hybrid library CCmax
T9 chain: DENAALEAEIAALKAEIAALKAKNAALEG

[10] = target: T10, 4H1198-AA; test: two-hybrid library CCmax; settings: mean of both orientations
T10 chain: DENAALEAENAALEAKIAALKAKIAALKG

[11] = target: T11, 4H55-AA; test: two-hybrid library CCmax; settings: mean of both orientations
T11 chain: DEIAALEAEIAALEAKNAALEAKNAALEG

[12] = target: T12, 4H4033-AA; test: two-hybrid library CCmax; settings: mean of both orientations
T12 chain: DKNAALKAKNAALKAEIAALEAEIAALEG

[13] = target: T13, 4H2238-AA; test: two-hybrid library CCmax; settings: mean of both orientations
T13 chain: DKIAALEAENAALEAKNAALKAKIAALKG

[14] = target: T14, 4H2726-AA; test: two-hybrid library CCmax; settings: mean of both orientations
T14 chain: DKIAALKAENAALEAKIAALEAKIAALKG

[15] = target: T15, 4H2536-AA; test: two-hybrid library CCmax; settings: mean of both orientations
T15 chain: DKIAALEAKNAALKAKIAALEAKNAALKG

[16] = target: T16, 4H1350-AA; test: two-hybrid library CCmax; settings: mean of both orientations
T16 chain: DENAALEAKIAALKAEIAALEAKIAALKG

[17] = target: T17, 4H2935-AA; test: two-hybrid library CCmax; settings: mean of both orientations
T17 chain: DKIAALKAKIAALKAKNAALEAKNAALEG

[18] = target: T18, 4H327-AA; test: two-hybrid library CCmax
T18 chain: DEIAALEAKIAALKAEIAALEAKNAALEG

[19] = target: T19, 4H369-AA; test: two-hybrid library CCmax; settings: mean of both orientations
T19 chain: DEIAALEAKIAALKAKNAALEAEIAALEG

[20] = target: T20, 4H2513-AA; test: two-hybrid library CCmax; settings: mean of both orientations
T20 chain: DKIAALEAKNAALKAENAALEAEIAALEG

[21] = target: T21, 4H3922-AA; test: two-hybrid library CCmax; settings: mean of both orientations
T21 chain: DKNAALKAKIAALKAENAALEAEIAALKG

[22] = target: T22, 4H662-AA; test: two-hybrid library CCmax; settings: mean of both orientations
T22 chain: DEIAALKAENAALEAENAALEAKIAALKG

[23] = target: T23, O15; test: two-hybrid library CC0; settings: mean of both orientations
T23 chain: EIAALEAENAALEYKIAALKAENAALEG

[24] = target: T24, O16; test: two-hybrid library CC0; settings: mean of both orientations
T24 chain: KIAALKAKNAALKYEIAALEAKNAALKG

[25] = target: T25, O13; test: two-hybrid library CC0; settings: mean of both orientations
T25 chain: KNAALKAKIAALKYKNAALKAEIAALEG

[26] = target: T26, O14; test: two-hybrid library CC0; settings: mean of both orientations
T26 chain: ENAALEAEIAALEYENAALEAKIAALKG

[27] = target: T27, O7; test: two-hybrid library CC0; settings: mean of both orientations
T27 chain: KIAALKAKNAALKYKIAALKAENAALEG

[28] = target: T28, O11; test: two-hybrid library CC0; settings: mean of both orientations
T28 chain: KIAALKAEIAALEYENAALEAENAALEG

[29] = target: T29, O8; test: two-hybrid library CC0; settings: mean of both orientations
T29 chain: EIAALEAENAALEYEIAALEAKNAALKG

[30] = target: T30, O12; test: two-hybrid library CC0; settings: mean of both orientations
T30 chain: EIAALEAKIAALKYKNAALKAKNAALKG

[31] = target: T31, O9; test: two-hybrid library CC0; settings: mean of both orientations
T31 chain: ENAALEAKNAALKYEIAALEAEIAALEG

[32] = target: T32, O3; test: two-hybrid library CC0; settings: mean of both orientations
T32 chain: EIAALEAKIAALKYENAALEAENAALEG

[33] = target: T33, O4; test: two-hybrid library CC0; settings: mean of both orientations
T33 chain: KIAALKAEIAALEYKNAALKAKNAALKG

[34] = target: T34, O5; test: two-hybrid library CC0; settings: mean of both orientations
T34 chain: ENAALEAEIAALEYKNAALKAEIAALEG

[35] = target: T35, O2; test: two-hybrid library CC0; settings: mean of both orientations
T35 chain: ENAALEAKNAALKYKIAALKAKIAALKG

[36] = target: T36, O6; test: two-hybrid library CC0; settings: mean of both orientations
T36 chain: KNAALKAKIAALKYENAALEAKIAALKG

[37] = target: T37, 4H2736-AA; test: two-hybrid library CCmax; settings: mean of both orientations
T37 chain: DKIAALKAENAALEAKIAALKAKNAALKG

[38] = target: T38, 4H2622-AA; test: two-hybrid library CCmax; settings: mean of both orientations
T38 chain: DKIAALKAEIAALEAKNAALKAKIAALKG

[39] = target: T39, 4H2705-AA; test: two-hybrid library CCmax; settings: mean of both orientations
T39 chain: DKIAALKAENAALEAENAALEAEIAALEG

[40] = target: 4H_GCN4; test: two-hybrid library CCmax
Sequence of 4H_GCN4 (chain, as listed by the source): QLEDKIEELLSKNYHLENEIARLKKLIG

[41] = target: T40, O14-AA; test: two-hybrid library CCmax; settings: mean of both orientations
T40 chain: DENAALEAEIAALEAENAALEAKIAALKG

[42] = target: T41, 4H1385-AA; test: two-hybrid library CCmax; settings: mean of both orientations
T41 chain: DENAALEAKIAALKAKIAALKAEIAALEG

[43] = target: T42, 4H134-AA; test: two-hybrid library CCmax
T42 chain: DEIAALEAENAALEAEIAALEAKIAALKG

[44] = target: T43, 4H1392-AA; test: two-hybrid library CCmax; settings: mean of both orientations
T43 chain: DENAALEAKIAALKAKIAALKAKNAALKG

[45] = target: T44, 4H_BCR; test: two-hybrid library CCmax
T44 chain: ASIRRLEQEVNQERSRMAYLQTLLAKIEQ

[46] = target: T45, 4H2888-AA; test: two-hybrid library CCmax; settings: mean of both orientations
T45 chain: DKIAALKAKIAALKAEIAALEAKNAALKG

[47] = target: T46, 4H384-AA; test: two-hybrid library CCmax; settings: mean of both orientations
T46 chain: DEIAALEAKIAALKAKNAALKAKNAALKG

[48] = target: T47, 4H510-AA; test: two-hybrid library CCmax; settings: mean of both orientations
T47 chain: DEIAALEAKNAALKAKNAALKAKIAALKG

[49] = target: T48, 4H3049-AA; test: two-hybrid library CCmax; settings: mean of both orientations
T48 chain: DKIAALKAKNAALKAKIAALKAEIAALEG

[50] = target: T49, 4H3905-AA; test: two-hybrid library CCmax; settings: mean of both orientations
T49 chain: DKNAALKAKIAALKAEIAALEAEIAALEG

[51] = target: T50, O11-AA; test: two-hybrid library CCmax; settings: mean of both orientations
T50 chain: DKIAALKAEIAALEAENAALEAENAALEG

[52] = target: T51, 4H3590-AA; test: two-hybrid library CCmax; settings: mean of both orientations
T51 chain: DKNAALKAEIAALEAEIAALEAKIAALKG

[53] = target: T52, 4H4038-AA; test: two-hybrid library CCmax; settings: mean of both orientations
T52 chain: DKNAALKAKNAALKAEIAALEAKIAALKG

[54] = target: GCN2_T; test: two-hybrid library CCmax; settings: mean of both orientations
[55] = target: T53, 4H337-AA; test: two-hybrid library CCmax; settings: mean of both orientations
T53 chain: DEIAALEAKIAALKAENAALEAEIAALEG

[56] = target: T54, 4H43-AA; test: two-hybrid library CCmax; settings: mean of both orientations
T54 chain: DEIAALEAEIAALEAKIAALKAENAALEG

[57] = target: T55, 4H_APH; test: two-hybrid library CCmax; settings: mean of both orientations
T55 chain: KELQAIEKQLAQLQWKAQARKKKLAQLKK

[58] = target: T56, O13-AA; test: two-hybrid library CCmax; settings: mean of both orientations
T56 chain: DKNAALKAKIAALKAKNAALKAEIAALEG

[59] = target: T57, 4H451-AA; test: two-hybrid library CCmax; settings: mean of both orientations
T57 chain: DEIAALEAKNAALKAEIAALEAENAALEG

[60] = target: T58, 4H3587-AA; test: two-hybrid library CCmax; settings: mean of both orientations
T58 chain: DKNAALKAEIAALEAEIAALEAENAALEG

[61] = target: T59, P11A-bA; test: two-hybrid library CCNG1
T59 chain: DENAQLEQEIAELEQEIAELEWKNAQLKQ

[62] = target: T60, 4H491-bH; test: two-hybrid library CCNG1
T60 chain: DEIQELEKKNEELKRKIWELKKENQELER

Binder: KIAALKAEIAALEYENAALEAENAALEG [O11]
interaction score [23]: -2.79
interaction score [24]: -2.66
interaction score [25]: -2.75
interaction score [26]: -2.7
interaction score [27]: -2.69
interaction score [28]: -2.72
interaction score [29]: -2.61
interaction score [30]: 0.932
interaction score [31]: -2.79
interaction score [32]: -2.55
interaction score [33]: 0.197
interaction score [34]: -2.71
interaction score [35]: -2.53
interaction score [36]: -2.64

Binder: DEIAALEAENAALEAEIAALEAKIAALKG [4H134-AA]
interaction score [2]: 1.5
interaction score [37]: 0.536
interaction score [38]: 2.38
interaction score [39]: -0.938
interaction score [40]: 1.94
interaction score [41]: -0.533
interaction score [42]: 2.21
interaction score [43]: -0.374
interaction score [44]: 0.139
interaction score [45]: -0.839
interaction score [46]: 2.4
interaction score [47]: 2.04
interaction score [48]: 1.96
interaction score [49]: 1.84
interaction score [16]: 0.48
interaction score [50]: 1.17
interaction score [51]: -1.36
interaction score [52]: 0.654
interaction score [53]: 2
interaction score [54]: 0.268
interaction score [55]: 0.273
interaction score [56]: -0.679
interaction score [57]: 1.96
interaction score [58]: 2.02
interaction score [59]: 0.937
interaction score [60]: 0.794

Results, then the binder that gave them:

interaction score [1]: 2.17
interaction score [2]: -0.923
interaction score [3]: -1.89
interaction score [4]: -1.01
interaction score [5]: -1.61
interaction score [6]: -1.7
interaction score [7]: -0.163
interaction score [8]: 0.0702
interaction score [9]: 1.1
interaction score [10]: -1.33
interaction score [11]: -1.09
interaction score [12]: 0.386
interaction score [13]: -1.65
interaction score [14]: -1.04
interaction score [15]: -1.47
interaction score [16]: -0.275
interaction score [17]: -1.16
interaction score [18]: -0.714
interaction score [19]: -1.5
interaction score [20]: -1.55
interaction score [21]: -1.44
interaction score [22]: -1.27
Binder: DENAALEAEIAALKAEIAALKAKNAALEG [4H1103-AA]

interaction score [61]: 0.405
interaction score [62]: -1.32
Binder: DEIQELEKKNEELKRKIWELKKENQELER [4H491-bH]
